In paper PMC8350011, “Interactions between semaphorins and plexin–neuropilin receptor complexes in the membranes of live cells” (The Journal of Biological Chemistry, 2021):

What was measured:
Assay in all cases: PIE-FCCS (pulsed-interleaved excitation fluorescence cross-correlation spectroscopy); single live Cos-7 cells co-expressing eGFP and mCherry fusions, peripheral membrane, no exogenous ligand; 85 to 1245 molecules/μm^2; fraction correlated (fc): median below 0.09 monomer, 0.09-0.17 dimer, above 0.17 higher oligomers (homotypic)
plexin A4ΔSema = biological target: T1, plexin A4ΔSema (human, UniProt Q9HCM2 24-1894, deletes residues 39 to 506); details: partners not purified
T1 construct: also called plexin A4ΔSema-eGFP; plexin A4ΔSema-mCh; source: Cos-7, transiently transfected, in the membrane of live cells
T1 sequence (looked up): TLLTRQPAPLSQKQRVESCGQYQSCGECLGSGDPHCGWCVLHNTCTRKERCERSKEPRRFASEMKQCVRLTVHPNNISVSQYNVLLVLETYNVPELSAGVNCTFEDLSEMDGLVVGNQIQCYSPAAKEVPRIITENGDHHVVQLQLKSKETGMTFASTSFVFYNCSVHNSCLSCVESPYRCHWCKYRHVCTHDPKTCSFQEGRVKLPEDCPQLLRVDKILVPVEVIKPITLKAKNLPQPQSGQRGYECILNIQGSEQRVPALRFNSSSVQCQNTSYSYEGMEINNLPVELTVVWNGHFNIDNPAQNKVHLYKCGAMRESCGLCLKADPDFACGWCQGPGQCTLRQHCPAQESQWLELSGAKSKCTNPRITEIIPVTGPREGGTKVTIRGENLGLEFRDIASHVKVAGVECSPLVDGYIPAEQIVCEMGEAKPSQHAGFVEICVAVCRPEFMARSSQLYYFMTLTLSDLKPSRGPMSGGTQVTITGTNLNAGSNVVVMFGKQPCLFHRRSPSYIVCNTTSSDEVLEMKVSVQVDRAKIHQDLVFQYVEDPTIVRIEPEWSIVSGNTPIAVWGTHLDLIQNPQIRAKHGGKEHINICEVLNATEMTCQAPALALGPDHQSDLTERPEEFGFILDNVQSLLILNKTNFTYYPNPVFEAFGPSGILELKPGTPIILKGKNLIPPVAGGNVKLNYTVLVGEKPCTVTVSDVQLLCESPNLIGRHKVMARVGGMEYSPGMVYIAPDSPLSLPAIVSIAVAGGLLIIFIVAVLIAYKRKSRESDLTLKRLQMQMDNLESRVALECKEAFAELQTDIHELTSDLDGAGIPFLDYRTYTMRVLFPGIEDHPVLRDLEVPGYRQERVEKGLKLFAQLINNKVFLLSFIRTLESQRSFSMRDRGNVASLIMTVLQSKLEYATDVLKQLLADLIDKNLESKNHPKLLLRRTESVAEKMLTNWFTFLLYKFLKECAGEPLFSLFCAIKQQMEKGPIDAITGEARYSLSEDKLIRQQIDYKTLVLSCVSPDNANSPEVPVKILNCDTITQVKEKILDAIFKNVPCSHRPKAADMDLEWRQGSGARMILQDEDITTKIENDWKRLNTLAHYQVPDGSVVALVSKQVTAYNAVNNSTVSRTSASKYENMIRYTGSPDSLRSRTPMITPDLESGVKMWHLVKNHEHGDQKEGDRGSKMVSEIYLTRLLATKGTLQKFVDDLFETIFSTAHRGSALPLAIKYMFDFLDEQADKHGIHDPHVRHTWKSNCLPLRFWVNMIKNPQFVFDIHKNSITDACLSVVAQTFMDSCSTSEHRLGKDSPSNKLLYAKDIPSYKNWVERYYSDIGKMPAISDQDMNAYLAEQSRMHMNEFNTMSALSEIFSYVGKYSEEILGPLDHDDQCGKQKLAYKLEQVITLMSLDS

plexin A4 = biological target: T2, plexin A4 (human, UniProt Q9HCM2 24-1894); details: partners not purified
T2 construct: Two constructs (eGFP and mCherry fusions); The N1 vectors probably put the fluorescent protein at the C-terminus; also called plexin A4-eGFP; plexin A4-mCh; source: Cos-7, transiently transfected, in the membrane of live cells

[1] = biological target: the molecule itself

- median fraction correlated (fc) (plexin A4ΔSema): 0.23
- median fraction correlated (fc) (plexin A4): 0.08
B1: plexin A2 (receptor, human, UniProt O75051 35-1894, looked up)
chain: MPQFSTFHSENRDWTFNHLTVHQGTGAVYVGAINRVYKLTGNLTIQVAHKTGPEEDNKSCYPPLIVQPCSEVLTLTNNVNKLLIIDYSENRLLACGSLYQGVCKLLRLDDLFILVEPSHKKEHYLSSVNKTGTMYGVIVRSEGEDGKLFIGTAVDGKQDYFPTLSSRKLPRDPESSAMLDYELHSDFVSSLIKIPSDTLALVSHFDIFYIYGFASGGFVYFLTVQPETPEGVAINSAGDLFYTSRIVRLCKDDPKFHSYVSLPFGCTRAGVEYRLLQAAYLAKPGDSLAQAFNITSQDDVLFAIFSKGQKQYHHPPDDSALCAFPIRAINLQIKERLQSCYQGEGNLELNWLLGKDVQCTKAPVPIDDNFCGLDINQPLGGSTPVEGLTLYTTSRDRMTSVASYVYNGYSVVFVGTKSGKLKKIRADGPPHGGVQYEMVSVLKDGSPILRDMAFSIDQRYLYVMSERQVTRVPVESCEQYTTCGECLSSGDPHCGWCALHNMCSRRDKCQQAWEPNRFAASISQCVSLAVHPSSISVSEHSRLLSLVVSDAPDLSAGIACAFGNLTEVEGQVSGSQVICISPGPKDVPVIPLDQDWFGLELQLRSKETGKIFVSTEFKFYNCSAHQLCLSCVNSAFRCHWCKYRNLCTHDPTTCSFQEGRINISEDCPQLVPTEEILIPVGEVKPITLKARNLPQPQSGQRGYECVLNIQGAIHRVPALRFNSSSVQCQNSSYQYDGMDISNLAVDFAVVWNGNFIIDNPQDLKVHLYKCAAQRESCGLCLKADRKFECGWCSGERRCTLHQHCTSPSSPWLDWSSHNVKCSNPQITEILTVSGPPEGGTRVTIHGVNLGLDFSEIAHHVQVAGVPCTPLPGEYIIAEQIVCEMGHALVGTTSGPVRLCIGECKPEFMTKSHQQYTFVNPSVLSLNPIRGPESGGTMVTITGHYLGAGSSVAVYLGNQTCEFYGRSMSEIVCVSPPSSNGLGPVPVSVSVDRAHVDSNLQFEYIDDPRVQRIEPEWSIASGHTPLTITGFNLDVIQEPRIRVKFNGKESVNVCKVVNTTTLTCLAPSLTTDYRPGLDTVERPDEFGFVFNNVQSLLIYNDTKFIYYPNPTFELLSPTGVLDQKPGSPIILKGKNLCPPASGGAKLNYTVLIGETPCAVTVSETQLLCEPPNLTGQHKVMVHVGGMVFSPGSVSVISDSLLTLPAIVSIAAGGSLLLIIVIIVLIAYKRKSRENDLTLKRLQMQMDNLESRVALECKEAFAELQTDINELTSDLDRSGIPYLDYRTYAMRVLFPGIEDHPVLRELEVQGNGQQHVEKALKLFAQLINNKVFLLTFIRTLELQRSFSMRDRGNVASLIMTGLQGRLEYATDVLKQLLSDLIDKNLENKNHPKLLLRRTESVAEKMLTNWFAFLLHKFLKECAGEPLFMLYCAIKQQMEKGPIDAITGEARYSLSEDKLIRQQIEYKTLILNCVNPDNENSPEIPVKVLNCDTITQVKEKILDAVYKNVPYSQRPRAVDMDLEWRQGRIARVVLQDEDITTKIEGDWKRLNTLMHYQVSDRSVVALVPKQTSSYNIPASASISRTSISRYDSSFRYTGSPDSLRSRAPMITPDLESGVKVWHLVKNHDHGDQKEGDRGSKMVSEIYLTRLLATKGTLQKFVDDLFETLFSTVHRGSALPLAIKYMFDFLDEQADRHSIHDTDVRHTWKSNCLPLRFWVNVIKNPQFVFDIHKGSITDACLSVVAQTFMDSCSTSEHRLGKDSPSNKLLYAKDIPSYKSWVERYYADIAKLPAISDQDMNAYLAEQSRLHAVEFNMLSALNEIYSYVSKYSEELIGALEQDEQARRQRLAYKVEQLINAMSIES
notes: Two constructs (pEGFP-N1 and pmCh-N1, EcoR1 and Kpn1 sites); the N1 vectors probably put the fluorescent protein at the C-terminus; also called plexin A2-eGFP; plexin A2-mCh; source: Cos-7, transiently transfected, in the membrane of live cells
- median fraction correlated (fc) [1]: 0.09
- stoichiometry N [1]: 2
